Data published in a protein production outcome set (Wang et al. 2014).

Experiment: label from the status in PepcDB records

| Sequence | protein production |
| --- | --- |
| MTTQSQFLVNLSYGGLASQSNLRANNRVSPSSCQITRTNRSWALPVSFKVEKFQLQRGRRRRGSPCFGESEGLVKNGIGDADGIIIVDHGSRRRESNLMLEEFVKMFKEKTGYPIVEPAHMELAEPSIKDAFSLCVQQGAKRVVVSPFFLFPGRHWHTDIPSLTADAAKEFSGISYLITAPLGPHNLLLDVVNDRIQHCLSHVEGDADECLVCAGTNKCKLYNSS | failed |
| MTTRDRTAIFKRYREESVVAKRKRSGNDGIQTIGNQSLSGNHKELAPFLNKGSIQTDSHTVFLPPQWLDWYEELSNSVDSVTHQLAQLESLQQNHLLPGFEERSDEESQISELSRNITLLLQRSQERIRLLAPSSSEPNISSEEKLLRTNAQKYFASKLQELSLSFRRNQKEYLRKLQGQNALVEESTDENPLSTSLELEEYDPGFTQEQVMLLENSDQVASERQREIMKIASSINDLATIVKDIASLVIDQGTLLDRIDYNVEEIEVSTEGAVKELEKAKRSQKKG | failed |
| MTTTKDVPIDLKASGKTAADTSYSFSSDTKSVTVTGTKAALAKLKSLPVNVDVTNVDSTTTKTVDVSTSDEDGISSVSPTSVKVKITVKNDLEHHHHHH | not failed |
| MTTTLSPDTARQIVPPEERYAAELAFLAAYDDGPRPPAWRLTPRAVVTFVMGSDGRALRLPEGAETPEGVPRRLTVEGKFVGDRSLVERCVVTLAGERGLLLVGEPGTAKSMLSELLSAAVCGTSGLVVQGTAGTTEDQLKYGWNYALLLAQGPSRTALVPSPVLTAMARGGIARVEEVTRCLPEVQDALVSLLSERRIAVPELSGTDDALAHAAPGFNLIATANLRDKGVSEMSAALKRRFNFETVGPIPDLDAETALVRSQARASVERAGAPFKVDEAVLEALVVAFRDLREGRSTEGWEVERPSTVMSTAEAVSVAGALGLAAAYFPGDRDVLGLLPGHLLGVVRKDDPADAARLRGYWDGPVRRRAEQGSATWRTLWDLRTVLEGLEHHHHHH | failed |
| MTTTNEQEQSRAYILAGLFTLSLRLVVGWTYFSAFWRRLVLENKLIPDSAGYIGEKFNHFLPNSIGIRPVIEYLVSTPDMLWWAMVIFTLVEGIVGLLYMLGFFTRLMSIGVFSLATGILLGSGWLGTTCLDEWQIGILGIAAGFTIFLSGGGKYSVDHLIERKFSLKKKAAWLSWLTSGELPVSAKRFANVSVAGAIVIFTLSLYTNQEFHNGVWGPLHNKSVKPKIEISDAQIENNSLSFSVYRVEGVDVYGSFLIGISLKNADGDIVLEKKGEELADFPIGNIDNKYIARVAPGKHSLVIPLGSKATLTVDDTAIGSLPKGKYELVLTDISGITWKKEIIH | failed |
| MTTTPDWIMIGGDGPESYNQQSSYQRALLEATKDKMTKAISANLDLDLISNRFIVADFGCASGPNTFVAVQNIIDAVEEKYRRETGQNPADNIEFQVLFNDFSLNDFNTLFQTLPPGRRYFSAGVPGSFFERVLPKESFHIGVMSYAFHFTSKIPKGIMDRDSPLWNKDMQCTGFNPAVKKAYLDQYSIDTKILLDARAEELVPGGLMLLLGSCLRDGVKMSETPKGTVMDFIGESLSDLAKQGVTEQEKVDTFRTSIYFAEQGEIRQIIEENGKFTIEAFEDIIHAKNEFPFDPKTLAISFKAFYGAFISAHFGVEVMRKAFELVEVKAREQISRLHNSKPGMQYLIVLRKN | failed |
| MTVAFASDQRLENGAEQLESLRRQMALLSEKVSGGPSRSGDLVPAGPVSLPPGTVGVLSGARSLLLSMVASVTAAGGNAAIVGQPDIGLLAAVEMGADLSRLAMIPDPGTDPVEVAAVLIDGMDLVVLGLGGRRVTRARARAVVARARQKGCTLLVTDGDWQGVSTRLAARVCGYEITPALRGVPTPGLGRISGVRLQINGRGR | failed |
| MTVEPFRNEPIETFQTEEARRAMREALRRVREEFGRHYPLYIGGEWVDTKERMVSLNPSAPSEVVGTTAKAGKAEAEAALEAAWKAFKTWKDWPQEDRSRLLLKAAALMRRRKRELEATLVYEVGKNWVEASADVAEAIDFIEYYARAALRYRYPAVEVVPYPGEDNESFYVPLGAGVVIAPWNFPVAIFTGMIVGPVAVGNTVIAKPAEDAVVVGAKVFEIFHEAGFPPGVVNFLPGVGEEVGAYLVEHPRIRFINFTGSLEVGLKIYEAAGRLAPGQTWFKRAYVETGGKDAIIVDETADFDLAAEGVVVSAYGFQGQKCSAASRLILTQGAYEPVLERVLKRAERLSVGPAEENPDLGPVVSAEQERKVLSYIEIGKNEGQLVLGGKRLEGEGYFIAPTVFTEVPPKARIAQEEIFGPVLSVIRVKDFAEALEVANDTPYGLTGGVYSRKREHLEWARREFHVGNLYFNRKITGALVGVQPFGGFKLSGTNAKTGALDYLRLFLEMKAVAERF | not failed |
